In the data set the test system is CC(=O)N[C@H]1[C@@H](OP(=O)(O)OP(=O)(O)OC[C@H]2O[C@@H](n3ccc(=O)[nH]c3=O)[C@H](O)[C@@H]2O)O[C@H](C)[C@@H](NC(C)=O)[C@@H]1O. The data set is described as follows: purified protein. Conditions: Mg2+.

By Km is commonly meant the substrate concentration at which the rate is half of its maximum.

Regarding “PglC (Campylobacter jejuni subsp. jejuni NCTC 11168 = ATCC 700819)”, the Km is 7.2 ± 1.1 µM.
